From publication PMC5887321
Like-named read-outs stand apart in the source and are kept apart here.

Columns and labels:
Assay in all cases: SEC-SAXS
[1] = molecular target: T1, FL-RIG-I (human, UniProt O95786 1-925)
T1 sequence: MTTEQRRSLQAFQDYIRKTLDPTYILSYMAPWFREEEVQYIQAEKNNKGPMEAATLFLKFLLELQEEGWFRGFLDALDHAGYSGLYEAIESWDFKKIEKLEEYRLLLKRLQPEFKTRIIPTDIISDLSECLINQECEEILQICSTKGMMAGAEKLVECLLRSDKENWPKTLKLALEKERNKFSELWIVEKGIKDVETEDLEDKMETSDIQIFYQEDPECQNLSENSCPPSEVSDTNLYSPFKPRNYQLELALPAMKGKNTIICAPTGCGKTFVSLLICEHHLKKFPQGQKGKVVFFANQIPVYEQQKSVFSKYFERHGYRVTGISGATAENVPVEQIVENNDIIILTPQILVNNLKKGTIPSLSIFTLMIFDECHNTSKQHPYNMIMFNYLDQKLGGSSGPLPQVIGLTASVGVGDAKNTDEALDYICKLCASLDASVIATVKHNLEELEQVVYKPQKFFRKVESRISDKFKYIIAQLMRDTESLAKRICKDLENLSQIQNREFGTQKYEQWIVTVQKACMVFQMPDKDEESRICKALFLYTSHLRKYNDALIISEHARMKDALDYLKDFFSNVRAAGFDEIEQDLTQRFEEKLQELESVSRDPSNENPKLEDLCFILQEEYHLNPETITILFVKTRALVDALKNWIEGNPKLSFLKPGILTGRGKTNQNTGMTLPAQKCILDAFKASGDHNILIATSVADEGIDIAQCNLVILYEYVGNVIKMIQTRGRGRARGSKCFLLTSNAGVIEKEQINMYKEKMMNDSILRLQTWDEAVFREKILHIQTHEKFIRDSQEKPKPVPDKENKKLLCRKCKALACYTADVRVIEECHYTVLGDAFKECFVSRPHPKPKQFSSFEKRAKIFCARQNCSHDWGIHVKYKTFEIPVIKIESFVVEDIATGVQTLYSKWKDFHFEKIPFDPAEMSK

[2] = molecular target: T2, DC-RIG-I (CARDs-truncated) (human, UniProt O95786 239-925)
T2 sequence: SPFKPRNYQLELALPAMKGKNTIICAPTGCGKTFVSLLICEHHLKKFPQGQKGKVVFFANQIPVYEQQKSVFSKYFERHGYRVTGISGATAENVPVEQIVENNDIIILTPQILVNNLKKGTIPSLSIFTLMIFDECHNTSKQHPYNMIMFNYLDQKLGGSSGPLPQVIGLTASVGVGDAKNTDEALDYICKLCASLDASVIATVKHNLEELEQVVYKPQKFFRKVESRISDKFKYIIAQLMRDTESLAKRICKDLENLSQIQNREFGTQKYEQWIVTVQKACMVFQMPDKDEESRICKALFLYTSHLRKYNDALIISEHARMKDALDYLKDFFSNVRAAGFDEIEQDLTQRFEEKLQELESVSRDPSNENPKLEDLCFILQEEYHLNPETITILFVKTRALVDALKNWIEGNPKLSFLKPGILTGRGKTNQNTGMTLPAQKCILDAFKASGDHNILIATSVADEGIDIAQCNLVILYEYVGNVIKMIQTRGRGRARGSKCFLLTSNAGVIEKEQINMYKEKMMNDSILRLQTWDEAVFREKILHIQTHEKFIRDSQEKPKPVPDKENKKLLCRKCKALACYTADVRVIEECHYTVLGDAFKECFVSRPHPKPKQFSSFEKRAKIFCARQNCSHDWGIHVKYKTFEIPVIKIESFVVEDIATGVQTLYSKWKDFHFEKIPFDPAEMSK

[3] = molecular target: T1, FL-RIG-I; remark: listed apart in the source
[4] = molecular target: T2, DC-RIG-I (CARDs-truncated); remark: listed apart in the source
[5] = molecular target: T1, FL-RIG-I; remark: listed apart in the source
[6] = molecular target: T2, DC-RIG-I (CARDs-truncated); remark: listed apart in the source

GGCGCGGCUUCGGCCGCGCC (structured_RNA, 5'-triphosphate) [5'ppp 8 bp hairpin (8 bp, SEC peak 1)]: binds [1]; binds [2].

GGACGUACGUUUCGACGUACGUCC (structured_RNA, 5'-triphosphate) [5'ppp 10 bp hairpin (10 bp)]: binds [3]; binds [4].

B1: 8 bp-long (self-annealed 8 bp, SEC peak 2) (dsRNA)
RNA 1: GGCGCGGCUUCGGCCGCGCC
RNA 2: GGCGCGGCUUCGGCCGCGCC
modifications: 5'-triphosphate on each strand
B1: binds [5]; binds [6].
